According to patent US20030186281A1, “Modified tetracycline repressor protein compositions and methods of use” (priority 2001, published 2003):
Residue numbers refer to the chain shown, from its start. Names and notes keep the numbering of the source.

B1: TetRrev96/99-13: revTetR(BD) G96T V99D (protein)
chain: MSRLDKSKVINSALELLNEVGIEGLTTRKLAQKLGVEQPTLYWHVKNKRALLDALAVEILARHHDYSLPAAGESWQSFLRNNAMSFRRALLRYRDTAKDHLGTRPDEKQYDTVETQLRFMTENGFSLRDGLYAISAVSHFTLGAVLEQQEHTAALTDRPAAPDENLPPLLREALQIMDSDDGEQAFLHGLESLIRGFEVQLTALLQIV
modifications: Modified tetracycline repressor
notes: revTetR(BD) G96T V99D
B2: TetRrev96P: revTetR(BD) G96P (protein)
chain: B1 chain with T96P, D99V
modifications: Modified tetracycline repressor
notes: revTetR(BD) G96P
B3: TetRrev96/99-17: revTetR(BD) G96T V99K (protein)
chain: B1 chain with D99K
modifications: Modified tetracycline repressor
notes: revTetR(BD) G96T V99K
B4: TetRrev96/99-16: revTetR(BD) G96P V99Y (protein)
chain: B1 chain with T96P, D99Y
modifications: Modified tetracycline repressor
notes: revTetR(BD) G96P V99Y
B5: TetRrev96/99-19: revTetR(BD) G96R V99S (protein)
chain: B1 chain with T96R, D99S
modifications: Modified tetracycline repressor
notes: revTetR(BD) G96R V99S
B6: TetRrev96/99-18: revTetR(BD) G96T V99P (protein)
chain: B1 chain with D99P
modifications: Modified tetracycline repressor
notes: revTetR(BD) G96T V99P
B7: TetRrevAtc4-2: revTetR(BD) R49G L55L V57V E58N R62L H63Q (protein)
chain: B1 chain with R49G, E58N, R62L, H63Q, T96G, D99V
modifications: Modified tetracycline repressor
notes: revTetR(BD) R49G L55L V57V E58N R62L H63Q
B8: TetRrev96/99-20: revTetR(BD) G96S V99K (protein)
chain: B1 chain with T96S, D99K
modifications: Modified tetracycline repressor
notes: revTetR(BD) G96S V99K
B9: TetRrev96/99-14: revTetR(BD) G96N V99N (protein)
chain: B1 chain with T96N, D99N
modifications: Modified tetracycline repressor
notes: revTetR(BD) G96N V99N
B10: TetRrev96/99-15: revTetR(BD) G96P V99P (protein)
chain: B1 chain with T96P, D99P
modifications: Modified tetracycline repressor
notes: revTetR(BD) G96P V99P

Tested on: tet operator sequence
Test: β-galactosidase activity of a tetracycline-regulated promoter in transformed E. coli with revTetR, in the presence and absence of anhydrotetracycline (atc)
Assay type: cell-based, Escherichia coli
Settings: for β-Galactosidase Activity, Cultured Without ATC: RevTetR isolate cultured in the absence of anhydrotetracycline (ATC); for β-Galactosidase Activity, Cultured With ATC: RevTetR isolate cultured in the presence of anhydrotetracycline (ATC)
How it was run: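 TetR(BD) chimera mutants (TetR(B) residues 1–50, TetR(D) 51–208) expressed in E. coli regulating a tet operator-controlled lacZ. β-Galactosidase measured in Miller units at 28 °C and 37 °C with and without anhydrotetracycline; reported as percent of maximal expression without Tet repressor.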

Molecule	β-Galactosidase Activity, Cultured Without ATC	β-Galactosidase Activity, Cultured With ATC
B1	103.963	16.95
B2	24.1109	4.1882
B3	92.9198	8.4558
B4	93.7512	9.8301
B5	95.188	7.4009
B6	85.7142	7.5138
B7	3.143	0.9516
B8	81.8583	3.0074
B9	110.999	14.693
B10	110.413	14.218
